# Test results: IntAct's records for PubMed 15962010
# Biological target: sumf1_human SUMF1 (UniProt Q8NBK3)
# Sequence (Q8NBK3 whole entry): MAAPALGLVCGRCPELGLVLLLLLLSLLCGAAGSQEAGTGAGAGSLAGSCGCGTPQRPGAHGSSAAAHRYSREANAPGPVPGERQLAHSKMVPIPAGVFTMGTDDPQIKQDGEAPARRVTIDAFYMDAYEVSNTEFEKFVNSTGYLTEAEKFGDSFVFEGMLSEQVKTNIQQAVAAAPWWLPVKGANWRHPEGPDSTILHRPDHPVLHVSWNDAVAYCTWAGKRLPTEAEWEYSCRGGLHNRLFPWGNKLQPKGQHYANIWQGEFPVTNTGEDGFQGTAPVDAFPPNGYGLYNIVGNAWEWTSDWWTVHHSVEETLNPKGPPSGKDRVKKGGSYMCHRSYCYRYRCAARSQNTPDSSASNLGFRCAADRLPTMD
substance,measurement,value
"Inactive C-alpha-formylglycine-generating enzyme 2 (Homo sapiens), Q8NBJ7 C156A;C290A",effect of a mutation on the interaction,disrupting interaction strength
